Results on one substance are retold here after patent US10030065.

Bounds are passed on as bounds.

The target of the test is purified folded MHC-complex (Example 29). As to the kind of experiment: sandwich ELISA, W6/32 coat, HRP rabbit anti-β2m detection. Background: In an ELISA, binding on a coated surface is turned into a signal by an enzyme label.

With “W6/32 mouse-anti-HLA-ABC antibody (Dako M0736)”, the OD450 against the negative control β2m (fold) was greater than 6 fold.
